This data set has as its system NC(=O)CC[C@H](N)C(=O)O. The data set is described as follows: purified protein. The note with it: MgCl2 present, 0-25 mM substrate, standard assay pH 8 phosphate, 50 °C.

rSAM (L-glutaminase) (Cohnella sp.): the Km (in general, the concentration of substrate that gives half-maximal velocity) stood at 1800 µM.
